For this assay, the target named is CH848TF gp120 monomeric protein (HIV-1 CH848 transmitted-founder …, UniProt A0A1W6IPB2, strain, N-linked glycans). As to the kind of experiment: ELISA.

B1: 2G12 IgG (antibody, V domains shown)
VH: EVQLVESGGGLVKAGGSLILSCGVSNFRISAHTMNWVRRVPGGGLEWVASISTSSTYRDYADAVKGRFTVSRDDLEDFVYLQMHKMRVEDTAIYYCARKGSDRLSDNDPFDAWGPGTVVTVSP
VL: DVVMTQSPSTLSASVGDTITITCRASQSIETWLAWYQQKPGKAPKLLIYKASTLKTGVPSRFSGSGSGTEFTLTISGLQFDDFATYHCQHYAGYSATFGQGTRVEIK
As to B1, the binding result was “binds”.

(Values after doi:10.1101/2020.06.30.178921 (bioRxiv, 2020).)
